We go through 4 molecules from paper PMC13335484.

In general, Kd refers to a measure of binding affinity in units of concentration.

Data set [1] concerns the target T1, Gh-TDH wild-type (Grimontia hollisae, UniProt A0A377HK12 25-189). The data set is described as follows: BLI; 50 mM EDTA. The settings on record: protein: recombinant, chain copies: 4, label: 5'-biotin. Background: Biolayer interferometry detects binding as a change in optical thickness at a sensor tip.
The target in data set [2] is T1, Gh-TDH wild-type. Nature of the data set: BLI; 50 mM EDTA; BLI: PBS pH 7.4, 50 mM EDTA, 1 mg/mL BSA, 1000 rpm, temperature not stated; crystals: protein:ssDNA 1:1.3, hanging drop, 20 C. Particulars: protein: recombinant; chain copies: 4; label: 5'-biotin.

Consider TTTTTTTTTTTT (ssDNA) [poly(dT12)], for which the equilibrium dissociation constant (Kd) with Gh-TDH wild-type [1] is around 3.08 µM.

Turning to CTCTATAGAGTTTTCTCTATAGAGTTCT (structured_DNA) [stem-loop dsDNA with 4-nt 3'-overhang], in the data set with Gh-TDH wild-type [1] (hairpin, 3' overhang 4 nt), the Kd worked out at 14.8 µM.

In the case of AAAAAAAAAAAA (ssDNA) [poly(dA12)], the Kd in the data set with Gh-TDH wild-type [2] was around 3.08 µM.

For the molecule CCCCCCCCCCCC (ssDNA) [poly(dC12)], the Kd with Gh-TDH wild-type [1] is around 3.08 µM.
